The data set can be described thus: soluble fraction after stress (log2 fold change); higher = more stays soluble; pooled small domains, quantitative proteomics. The following applies: stress: 50 degC. In outline:
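The measure of aggregation propensity here is the base-two logarithm of the fold change in the soluble amount of each protein after stress. A higher value means more of that protein stays in solution. Stress was applied at 50°C to pooled libraries of small protein domains, read out by high-throughput quantitative proteomics.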

As to “HMQEPNYQPLMQNIKSQDLEEVTRLLSLNDVKFKIDHRTGLLLVESSRVYEAKMKLAATGITD”, the “soluble fraction (log2)” value was -0.224.
For “HMKNIINFIVKEDDNNKRVDMILANHDKSLSRTRVKNLILDSKLKINERIVQDPSIKTKLNDKIELEIVEP”, the “soluble fraction (log2)” value is 0.611.
The figure for “HMGKGVDKIMKMADDYSYGKIAGKTVDVMTAKLFQAAYNKAPQKAKDKVDKMNEKQLYIFMMNLWKRF” is -0.777; for “HMEILTRQLTHYLHLLPPAQQEVVRGVYLQDQTLQEIADRVQIPLGTVKSRLRLGLSKLREQIEQEHE” it is -0.916; for “HMRPPLRAAIIDHLARDWHTVAELARLLPASGAHVSRLVVELRAVGAVDERISHPDWPGNRPTEYRLRRA” it is -3.58.
Then “HMQEKQIIDGREFYIHQVERGITLYSIAKQYNVKVADIQAENPFLEAGLQPGQTLKIPLDKVETVQEIK”, with 0.125.
Turning to “HMGGEEKALLFGDVDIREAGEITQRLEQAEIPYELRGDGSSIFVPRSRVMEARMMISADGLL”, the “soluble fraction (log2)” value was -0.0992.
Then “HMYDKKVFRLLFILNQLDSRKKVSTGELAKEFNVSPRTVQRDIVLLNTTGFPIISLEKGYHSFMEGFSLK”, with -1.12; and “HMINLNEVLANFQKSYPNLAGFKYDQGMDALVYEGNYIRLNGYMLSRINPTLFSMSPDDIFTYLKNGF”, with -2.53.
The figure for “HMSITKDNLSIGTNIRISGFSDIGRIISIPNKGNQVQVQIGSAKMNIKINSIVEIIKEEKDFNKNISN” is -0.102.
For “HMSDKPIFIDTAGIAALSAIGFSKYQATIIFNYIKKGGAIYTVKDLAKIYSIDQKTIDLTQSKIIFS”, the “soluble fraction (log2)” value was -0.0111.
The figure for “HMPTMEQTYIGRTMIAEEDMGKNSKIKVSGIYWTAYNKGRVIKKGEEYKITGIEGNKLIVSSK” is -0.0359; for “HMNTEKRVFAGVENTRLDHFLVEQFPEFSRTFIQQMIKSANVIVNGNIEKASYKLREGDTIMTRPM” it is -0.253; for “HMDDGNHTEYIVLEKAKFYDEAGEYEEGRDLVLSFDKYQDNWKLVYTLGVFNKKLNNLEEARKYYKQALE” it is -0.0519.
In the case of “HMTVSADIIQKIIKTSTTDENIITIDSISNSISKLALSKITAEDIIEILEASSLVLRNSNGSWTVL”, the “soluble fraction (log2)” value is -0.617.
The figure for “HMSDSGLPLPRFVSLGDDRVNARAGPGFRFPINWVYLRKNFPVEVIDEFGHWRRIKDIDGIEGWIHLSML” is -0.775; for “HMTEEYAVLWRVARQTLKPEAFDVLWMKYREQLSIAEIAGIMNRSETSVKVMLHRARKNLGTALESS” it is -1.71.
As for “HMYGQEVKVLGLFGDRAFIKVDEKSAVIRIGQSHQNVQLKSISNQKAILLVDNKDIALGLGDSYQSA”, the “soluble fraction (log2)” value was -0.244.
Then “HMVLGSSVAMGQKIGDSDLTWVEVPLSSAFDRFLSEPEWRGSSDLVAARLLEAGVFLTEDDVVE”, with 0.0949; and “HMGEMTDFETLRDMYLTGQIWNIDDLIEANGVEGRIVRRGTNYIAFNDRDGKVHKAWLHEVTINE”, with -0.836; and “HMSLRGEKTYDEAHQKLIKSAVELFKNPLVSPEKITVSQIAKHAGVSVATAYNHFPENKLDIYGSIF”, with -0.071.
Then “HMNFFQEIGNSILIELNKKNWTQSMFAHKIGVSDEVFKQIVQGKKALNAVEIAKIANTLDVDPEKLLRK”, with -0.191.
“HMSQEHTVPDYKDMEATVVYADLTQKGLNYEIAQETSPTIKEGNVTQTIPGMNEKVVSGDTITVFVSTGTG”: the “soluble fraction (log2)” value worked out at 0.193.
The figure for “HMITANNYFNEVERIGVETLPETLRKGHDLVVRSTNSGTNWSNYQNNESIRKVIDLYLQKLNEYVSTST” is 0.131; for “HMSASIAEGTVIMLENTTNIRSGMSEDSSKVGTAYAGEKVTVVMSYAEGWTKVKWNGETGYIKTALLQL” it is -0.212; for “HMPKRSKDEAELEFLEMLRDNQVDSTWSFGKIISQLGSTDPRYWMVDDDPLWKRQIFEKYLSNR” it is -0.292.
Regarding “HMITLPDFVGKDVETVKAWAKENGITLIVNKVEDSAKKDTVISQTPTTYDYSKIMKGSSFTVNVAKE”, the “soluble fraction (log2)” value is -0.0122.
“HMHPLFRVVLAGEPNGVGLDDWLTRHEAELINGPSAIGVLTVKIAMGRRSFETVLDEIRADGETIFVEPV”: the “soluble fraction (log2)” value was -2.66.
In the case of “HMETVVTEVKTTDVVNIRTSDSETADKLSKAAIGDTFPLLEERGNGWSKVAYNGEEAFIKSDYLEPSKTE”, the “soluble fraction (log2)” value was found to be 0.42.
The figure for “HMNSRTLAYSDFIRKVDKGEVSAVVIDGEQVQVQTKDGQTFVTIQPQSEQMNDKLVEQLIAKDISVKAERQ” is 0.158; for “HMGKAMIDWEREQSILRILLRQKALTTEQAREVYQDGMREDLSALEMGVQRGYFTHEQLREATGGE” it is 0.0179.
With “HMTKTEFLEALRRALNGNMAAASVEDNLKFYENYFYSEEAKGRSEAAVLSELGDPRILARTLIDAAER”, the “soluble fraction (log2)” value was 0.0765.
The figure for “HMDYYSILGVDRNATGEDIKKAFKKKAMKYHPDRNPDNKESERKFKEAKEAYDTLSNPQKKSMYDQFGT” is 0.0734; for “HMGVGVPVTLLLEKLGEDTLSAQQIMERLGLKSRASFRKVYLVPALEQKLIEMEFPDKPNSSKQRYRR” it is -0.853; for “HMKNEFRVYPNPANKEIVTFNQTQDIEVYDTLGKLVLKAKNTNTLDTKSFHSGIYFIKTGSGLTRKLVV” it is 0.107.
For “HMAEGPYSGKKVEKYPGGMEKRETMYSEGKLTRVTEFHQSGQKKMEVKVDANGQWKRLYWDNNGNPT”, the “soluble fraction (log2)” value was 0.07.
Then “HMNRIFQERVVPAELDTLRADKVAASLFSDFSRNELAHWIKMGDLSINGGVKKAKDKLFEGDVLILDVEIV”, with -0.798.
Regarding “HMNEIDDYDIQLLEYLSKGVSQEAMESVFKQAGITPNSKSTIEKRISKLKIYFKALNTTHLVSITKDLGL”, the “soluble fraction (log2)” value was -0.642.
For the sequence “HMRKLTDRQRQILDLIKTIIAETGAPPTRAEISTALGFKSANAAQEHLQALAQKGMIDLVSGASRGIRLRG”, the “soluble fraction (log2)” value was -0.379.
Regarding “HMDYNLTKNQKIVFNLLQNSGEPLKAYTILESLKREGLKSPLQVYRALDKLVELGIIHKIESQNSFI”, the “soluble fraction (log2)” value is -0.45.
“HMNMAEETLDTAAKILKAAEEEFMEKGYGNAKMMSIAARAGVSHSMLHYYYRSKGKLFQMIFDEKA”: the “soluble fraction (log2)” value was -1.4.
The figure for “HMSKQQFLDELAARLREEGAELLVAENLNFYRSYIEEEVAKGRSEEEVLAELGNPALIARSILDAAGF” is -0.153; for “HMDPERLDQLQNPDPAVRREAIIALGRSKDLAALPELAKVYKNDPVPELRELARQAGRYIQQENRP” it is 0.126; for “HMFSMKDFGQRLRQLRKERGLTQGDLARLAKIDIMQVSRYERGLGLPSLETAIALARVLETSTDLLFLG” it is -1.46.
“HMVDPAEASKRAREYLDALPADDLKDVIRQFSATLAEGSVVLGYFQRSGLKSKVVKTALEQFVASTILSK”: the “soluble fraction (log2)” value was -0.167.
The figure for “HMAIMISINAKGEVAWNDQIISLDDLAQRFNAAGQQAQKPTVQLRADKESRYDMVAQVMSRASEAGLSDIA” is -0.781.
The figure for “HMRKDRKVLMERGRHIFNDLLEKEGIVATNQLMTKLLASHHLRNRDELYLMLANDDISLSSKEIKDLS” is 0.0203; for “HMYLPLREVVFNALRTAIIHGEFKPGERLMEMHLAKSLGVSRTPVREAMRMLELEGLVVMIPKKGAEVAR” it is -3.13.
For “HMDGQPQLLIKNGQLLVSTALKNGMSANDLMFRLRTEGITDIRYVKRAVLEQNGQLTITQVGDD”, the “soluble fraction (log2)” value was -0.105.
Take “HMTEKSTRSVPQEHEGKRLDVAAALLFPVYSRSELARRIDAGYLLLNGKGSTPKTKVHELDLIELLEV”: the “soluble fraction (log2)” value is -0.341.
The figure for “HMVVDEQRIQTLVSAAEQNSSDPVPRVTLGNLYFDAEQFEEAVKWYEQALALDPRNVNVSTDLGVGYYY” is -0.00895.
Turning to “HMLPKNITNTIDHWIQKFPQGKQRSAIIAALHAVQHHNKGFLTNDLLNQVADYIDVPKMNVYEVATFYSM”, the “soluble fraction (log2)” value was found to be 0.0843.
Then “HMPVTAQFDFSKVLAGRTLKDGEFSFVLKDKNGTVLQTKTNDASGKVAFDALIYKNNEVGEHKYTVEEVI”, with 0.208; and “HMEYPNEIARIFNQIPELNVSAVARTLGINKSLLSSYIYGMKKPSPERTEEIKSAIRKIGQNMLAV”, with -0.421.
Then “HMSDPASLQRRLMSDPELTARILDSPFTRSLLDDPNLLRQMVNANPQLRRAMDANPQLRHAL”, with -0.21; and “HMKNDIQLKHDVEEELQWDPAVDASRFAVQAKDGVVTLSGGVDTFADKHAAEEAIRRVAGVTALVIHVDV”, with -0.107.
The figure for “HMDIESREAWVDASGMGVRLDRWLTQLAPEFSRNHLQSLIERGAVRVDGQPALVASRKLRIGQQVAVSLIP” is -0.868; for “HMPSLAVYPNPVKDILNIATDKPVHSIRIYNVYGSEVLRAADTNRIDVSHLPAGVYMVSADGKVTRIIK” it is -0.462.
As for “HMEEFLSFIADILEVDKNTLTLETSQDDVETWDSLMQLRLLGEIEAKYGVMIPMERISTIKKLNDFYQYIK”, the “soluble fraction (log2)” value was -0.513.
For the sequence “HMRTPTGVQAYLSSGLIKGIGEKTAAAIVDKFGTDALSVIETDPERLLEIPGITPNKLREILESYNQH”, the “soluble fraction (log2)” value came to 0.141.
“HMGPKALLKIPGLQEVDAELLFKEGYKSISAVASADPEMLKAIPGVDEQKVTEWVTGAEQILSQQVNKGA”: the “soluble fraction (log2)” value was found to be 0.342.
For “HMNTVAGAISDLSFKVRGSEDIEKLNRLKALSIQAKLDVQGQEEAERLISELEAKYGSLGMTVDKVSGKIA”, the “soluble fraction (log2)” value amounted to 0.158.
With “HMRDVVVVPDLSGLTQMEALSKLDAESLNIGEINYGVSEMPEGVIFKQDPVYGTELMKGDTVDIFISGR”, the “soluble fraction (log2)” value is -0.527.
The figure for “HMDIEITIPPEAKELDVSKILISGNIITDEQEFLDYLKQNNVAAFKDGNYKLNKNMTTEEIVNQIK” is 0.498; for “HMSDFKDIILKLRNEQGFTQEKLADVLGTSKSTVGMWEMGVRFPSKELYEAIADYFNVDIDYLYGRTDIR” it is -0.966.
Then “HMKSNNPLDHVRVKQRGASWAYYFEKAKVDGKRRRGEGGGYATEQDARMAGVEAYNAYIGGGAK”, with -0.0068; and “HMNNVDQLIEQYKTLPGGLLPLLHAIKHALGYIPESTVGSIAKGFNLSRAEVHGVISFYHDFNTQP”, with 0.0707.
Then “HMFIQLSQEEKKVVEGLQQRSKTHLDALALEVGQNISKTAAMLMELEMKGVVRALPGKYYEL”, with -0.888.

(Values after the domain aggregation screens of Martell et al. (2025).)
